A short description of this data set: label from the status in PepcDB records.
With “MIFSPDAFTGSILAVEGIRDAAVILNGPTGCKLYHSFLSDRQFPRESSHDPLAFQDEFYFGQPRVPCTCLDGEDFIQGSLEKFERALAAVAAKEKGLLVVINSPGASLVGDDLENVIKNAGLQNRCFVVEKTGFSLPAAQGFENTTLTLLEHLKLRSLFRPHNRSEFPKKVNLIGLSLLHKHWEGSVAEMKRLLSFLGLEVGAILLAGTSLDEIRESNNAACNIVLFPEYGRRVAEWYRKHFGIPAVFSPLGAPLGFDANESLLREVAAILNIDPAPALAEVREARQTSYRQISRFHSFSGLPKGASFSIQAESSLVFPLTHWLYSYLGMAPYAVKLLPGSDPEMARSLKSFLTEKGFCEAWDRDLSLESVDIAFADSFTLQLLKAKGCCKAGIEISLPDRGYIHFIPKTYLGVSGALFLLEEIINGLRST”, the protein production result is “failed”.

As for “MTWQQFKQQYLVRFWAPMPAVIAAGILSTYYFGLTGTFWAVTGEFTRWGGHLLQLVGANPETWGYFKVIGLQGSPLDRIDGMMIIGMFGGCIAAALWANNVKLRMPQSRIRIAQALIGGIIAGFGARLAMGCNLAAFFTGIPQFSLHAWFFALATAAGSYFGARFTLLPMFRIPVKLKKVDKASSVKQDENQARLRFRIGMLVFAAIIGWGLLTMFNAPKLGIAMLCGVGFGLLIERAQICFTSAFRDMWITGRTHMAKAIILGMAVSAIGIYSYVQLGVPPKIMWAGPNAVIGGLLFGFGIVLAGGCETGWMYRAVEGQVHFWWVGLGNVLGSTLLAYYWDDLAQPLATNWDKVNLLTSFGDKGGLLVTYLLLALSFAAMLLWEKRFFARKAKRDEQLIAEAA”, the protein production result is recorded as “failed”.

Regarding “MKLINKSIPSIRLSEFISEIEDCLAATFYGDTFWITTEISDVNKKPDKRWCYLKLIEKEGKNVTAEIGAVFWTPGYAYIEKFEKETKQLFKDGLEITCRVKVTFHKRWGLKLEIVEIDYAYTLGKLEAERQETLDRLVKENPDYVRLVGEQYYTFNKSLPLPAVVQRIALITAPESDGQRDFRQELGNNPYGYAFHVDEFVTQIQGDKAHEFIIGKLLLIEAQKEKYDVVAIVRGGGSQLDLKAFDAYDLAQRIASFPVPILTGIGHDRNTSIADLMARQEKTPTKVANVIIQRNFQFEQTVLILKERMVHTVDGLFTNAKNNLKEIKRFVKASNPLTILKKGFAIVKQDNVIITDPSAIDVGTEIQIQFDKETVQSTVTKKKKNGK”, the protein production result is given as “failed”.

“MGYCQDDQLVNKICDLYEKISKLETLKPCEDVDTLFKQLVSTCIPPNPNIDVTKMSENIQEMRSNLIKICGEAEGYLEHHFSSILTSFEDNPLHHLNLFPYYNNYLKLSKLEFDLLEQNLNGFVPRTVAFIGSGPLPLTSVVLASSHLKDSIFHNFDIDPSANMVAARLVSSDPDLSQRMFFHTVDIMDVTESLKGFDVVFLAALVGMDKKEKVKVVEHLEKHMSPGALLMLRSAHGPRAFLYPIVEPCDLEGFEVLSVYHPTDEVINSIVISRKLGEDANGVVHDHIDQASDLACNCSKIHVIMNKKKSIIEEFAGANEEQLT”: the protein production result is given as “failed”. With “MSDHVCQEGCRHHSHGEDSPEIQQEFQEGRRDFMRDFAVGGVLASAASLGISSSAFGQTMPKTGLTSGHATHYYIPASDKTVSWGFFSKSLKPVVELESGDFATIETLTHHSNDDASLMVKGDPGAESVFYWDSKRKNVDRRGMGPMDHKLGAGGGMGVHILTGPVAIKGAEPGDVLEVRIVDVALRPSANPEFKGKTFGSNVAANWGFHYNELIEEPKKREVVTIYELDATGERNWARAFYNYRWTPQKDPFGVVHPIVDYPGVPVDHSTISKNYNVLKNIRVPVRPHFGTMGLAPKEADLVNSVPPSHFGGNIDNWRIGKGATMYYPVSVAGGLFSVGDPHASQGDSEMCGTAIECSLTGTFQFILHKKADLPGTPLADLQYPLLETQDEWVLHGFSYANYLAELGPDAQNSIFSKSSLDLALKDAFRKMRHFLMQTQNLTEDEAVSLMSIGVDFGITQVVDGNWGVHAVVKKGIFPGRDV”, the protein production result was “not failed”. In the case of “MIIRYATPDDIEDMVSIFIDAYNFPGPRESVKSSFEISLEVQPDGCLLAFLKDEPVGMGCIFFYNKQAWIGLMGVKKAYQRRGIGTEVFRRLLEIGRRKVDTIRLDASSQGYGLYKKFKFVDEYRTVRYELMERPIKRVEGVVEVNKIPNWVKEIDKKAFGDDRIRVLEAYMRRGARLLCAENEGFGLVYRGKIGPLVADSPRVAEKILLKAFQLGAREIIIPEVNKDALELIKIFKPSQVTSCMRMRLGSKIEEKVDIYYGILAYAKG”, the protein production entry is listed as “not failed”.

“MEYNRNFFIAIGLSFGVLIAWHFFYVAPKQTELQQKQLIAQQLLKQQSAVSSPTANFSDSASTHESALIINHPMSPEIRDAELAKTNRVAIKTNELEGSINLVGAQFDDLLLKKYRLTVDKKSSEIALLNPKGFKETYLAEFGFTSSSLSKDALPQSDTRWHIEGNNTTLTPSTPVTLIYNNGQGQTFRRILSIDDHYMFTIEDSITNESDKPIYLSSYARVARAAPPEHTNATYLLHEGMIGIAGDSLKTEKYKTLAELNPNPDNGQKSMTFSKVIGGWVGITDKYWAVAVIPPQDKEYTSRFIYFDRLQTHYQSDLLGSLLTVAPNETKTITNRLFAGAKQVEIINHYQNDLKIKKFALLIDWGWFDFITKPMFSLIDILYKQTGNFGIAILLVTVLLKTLLFPLANKSYKSMARMKLIQPMLLEIKEKYPEDRTKQQQAIIELYKTQKINPLAGCWPMLVQFPIFFALYKVLYITIEMRHAPFFGWIQDLAAPDPTSLFNLFGLLPYTVPAFLMLGAWPLIMGITMFLQMRMNPAPQDQTQAMIFAWMPIVFTFMLASFPVGLVIYWAWNNILSMIQQGIMMKRQGVKIELFDNLKAMWRKSPKKEAHE”: the protein production result was “failed”. For the sequence “GSIPRVLISADRSSSGKTTISMGLMAALVSRGYKVQPFKVALDYIDPSYHTEITGRFCRNLDGYLMDEHGILDVYTHACETGGGADIAIIEGVRGLFEGFESLSDVGSTAQIAKILKCPVVFVINARSITRSAAALIGGYKNFDPDVEIAGVILNNIGGRRHAQKAKEAIEHYTGVPVLGIIPRDPSMQISMRHLGLMPALEGRRRFGDGGFENRLHGIEEIINKGIDVDRFLGIAESAKPLTALENSIFSPAVNENSQKPKIGVALDEAFNFYYRDNIDLLEIAGAEIVYFSPVNDPGLPEVDGLYIGGGYPELFAAELEANETMRKSIKEASAAGMPIYAECGGLMYLTEKISTGVPGKGTYHDASMPESTYSMVGALPGHTIMGQTRVVSYNIGTLARDCPIGKKGNSFKGHEFHHSEILEIPDDAEFAIALTRGTGIRGDRDGLIVNNTIGSYAHLHGVAYRELAGSLVEAARKFRDS”, the protein production result is “failed”. For “MSADIVFDRGSPSDIDEIKTFTSNTWKVGYYTDLYSKLADTGTMDDYVDKVIERWVNDGSVYVLRVSGRPVATIHMEKLPDGSVMLGGLRVHPEYRGSRLGMSIMQETIQFLRGKTERLRSAVYSWNEPSLRLVHRLGFHQVEEYPIYTFQGGSTAVPALKPVNERYAGRWRCFFIDWKYMCSDDPDIIHEEYSNNLIVDGSTFVYFDIYEGGIDLFVNDSDDASSFIEKYRSMNGRITFYVRKALANGLPYVPASSLTVWEYRY”, the protein production result is given as “not failed”.

Take “TIDIDLQKKVESLLEKQISKLRSQGAKDMDNALMVVQNPKNGDILAIAGKQIDKQGKLKDYDIGNFTAQYTVGSSVKGGTLLAGYQNKAINVGETMVDEPLKFQGGLTKRSYFNKNGHVSIDDKQALMHSSNVYMFKTALKLAGDPYTSGMSLPNNIADAGRKLRKGLNQVGLGLKTGIDLPNETPGQIEPLTNNPGNYLDLAIGQYDTYTPLQLSQYVSTIANDGYRIQPHIGLSIYESTNKDETGPLKRKIKGNVLNKVNNSNDEIKEVQEGFKMAFNEKQGTGYASFRNTVVPSAGKTGTAEVFQDGEPRVNSTYIGYAPVDDPKLSFSIVYTNQPVPPPWLNGGDLGRDVINYYFKDKDNKKDDSQSNNEEKED”: the protein production entry is on record as “failed”. Consider “MNSRMKIKKAYEYMKSFHQHDTTGHDIAHVERVYNNACYIAKRENITDTLVIELSSLLHDTVDSKLTDEILAYDQLKQFLSTLDLSSEISQQVLYIIKHMSYRAGKNNHVKLSIDGEIVRDADRLDAIGAIGIARTFQFSGHFGEPMWTETKLSNEELHTSLVEELDNSAIKHFYEKLFKLKDLMHTPTAKKLAEERHQFMIQYLKQFMSEWNFNKELEHHHHHH”, for which the protein production result is recorded as “not failed”. As for “MDTQTVAAYDTLAETFAREWREQPAPDDLYALLRRMFKAGGDTVDIGCGAGREVAWLNANGYPAVGYDASAGLLEAARTQYPGLSFRRAMLPELVGIAEGAFDNVVCETVIMHLPPAQIGAAVRRLLALLRPGGTLYLSWRVTPEADQRDGRGRLYTAFDAAGVREALAGAQVLFDEVAVSQSSGLEHHHHHH”, the protein production entry is on record as “not failed”. Take “MRFMFLHPRLSLEGDPLGLMQLSASLKQRGHIVGLTLLTEDYIEAIRSFQPDMLGVSLMSSDAVMMHQVLNKVRMVFPDLFIIVGGPHPTFDPSCLMVLPVNAICVGEGDEALVEALEQYGREGHVEGIRNVGTVTTPVTLRPLVSDLDDLPFIDRDIVYAKNHIVRDFPLKTFAASRGCHFKCTYCFNHAYNAMYAGLGHVVRRRSVDHLIAEMRDVIARYPTSYIKISDDSFTYRVDSWLEEFAEKYPRLIGLPFYCLLRADVVTRDMVRLLREAGCRSVCMSIEAGAETVRRDVLNRRVSNEKIIESFDLFNEAGIAIYTNSMLAMPRATLADDIATLDLNIRCRPTLGHFTIMAPFPGTRIHDMCEKDGILPERCGGDGDIPTSTGELSKLTTYTDEEKNIQKNIVLLGPLVIRFPVLRGVFLRCLAKLPSNNILFKCIYTVTKNLLFKRIVPVRMSPLLMLRIAIAQVKAARTQVG”: the protein production entry is “failed”.

On to “MQIVKKEKFILKEYTFENGRTIPVQMGYETYGTLNRERSNVILICHYFSATSHAAGKYTAHDEESGWWDGLIGPGKAIDTNQYFVICTDNLCNVQVKNPHVITTGPKSINPKTGDEYAMDFPVFTFLDVARMQCELIKDMGIARLHAVMGPSAGGMIAQQWAVHYPHMVERMIGVITNPQNPIITSVNVAQNAIEAIRLDPSWKGGKYGEEQPMKGLQLANRMMFMNAFDEHFYETTYPRNSIEVEPYEKVSSLTSFEKEINKLTYRSIELVDANSWMYTAKAVLLHDIAHGFSSLEEALSNVEANVLMIPCKQDLLQPSRYNYKMVDLLQKQGKYAEVYEIESINGHMAGVFDIHLFEKKVYEFLNRKVSSFV”, for which the protein production entry is given as “not failed”.

As to “MIDILPLLDWHHFVYFAIPAVLLLIVSALFALYQRRVWAICIAIAAACVLMFFIGGMWHSLERPPLRTMGETRLWYSFFVIIAGLIIYIRWKYRWILSFATVLSTVFMIINIAKPDIHNKTLMPALESPFFVPHVISYIFAYAMLGAALLVGGYFLFCKRKHKEVNAKVMMHTTDNLVYTGFAFLMTGLLLGAIWAKLAWGTYWNWDPKETWAAITVFSYLLYIHHRLHRPRAFAHSLVLLIVSFLFLQICWYGVNYLPSAKDSSIHTYTR”, the protein production result is recorded as “failed”.

As for “MLYDLTVVQFSKMLKNLNAIFDKAEAFAELKKVDMDVLLNSRLAADQFNLIRQVQIACDTAKVGVARLTGQLETAPKHDDSETTLAELRQRIASVLTYLEGFSEADFANAATIQISQPRWQGKYLTGYEFAIEHAIPNLYFHITTAYGILRHNGVEVGKKDYLGAMPYKAPIL”, the protein production result is listed as “not failed”. On to “MFAHQNASFPPRPEGRGGKEAVFRLTVFCIITFSSLICEAMKRAYKYRFYPTTEQAELLAQTFGCVRFVYNSILRWRTDAYYERKEKIGYLQANARLTALKKEPEFAWLNDVSCVPLQQSLRHQQTAFANFFAGRAAYPAFKSKRHKQAAEFTASAFKYRDGKLYMAKNKIPLDVRWSRPLPSVPSTVTISKDAAGRYFVSCLCEFEPASLPITSSMVGIDVGLKDLFVTDTGFRSGNPRHTAKYAARLALLQRRLSKKAKGSKNRAKAHLKVARLHAKIADCRLDALHKATRKLINDNQVVCVESLKVRNMIRNPSLSKAIADASWGELVRQLRYKGEWAGRSVVAIDQFFPSSKRCSCCGFIMKKMPLDVRKWQCPECGTDHDRDVNAARNIKAAGLAVLAHGEPVNPESLKAALEHHHHHH”, for which the protein production result is listed as “failed”.

(Values after a protein production outcome set (Wang et al. 2014).)
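Further: failed if final PepcDB status was selected cloned or expressed and not failed if soluble or beyond.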
